Laboratory results reported in the DeepSol protein solubility set.

Assay: soluble on expression in E. coli; label from the status in PepcDB or PDB records

Question: Which “soluble on expression in E. coli” value does the source give for “MRFPPLLFFQDSEAVKRIANSVRGTKDDDAEIKDHSMRFIRNAISGDQQKEILNVDMLRYIAWVLVALNENIVTARTVIRERDAVEDALKNQQPEDIENFADDLKINMKYNRDLERFEIGVFDFVKYASRVTGSQYRLSNQSVIKGIVYCQKDVAIKILRESFVSNMFKVIDSIDQTTASPVLSDQTDSINELREFYKKSVYAKLTIGRGNTKAFPPCMKEIIRNLHEGINVPHMGRLAIASFLHKVGYTEDEIVEYFRNAPDFDESITRYQIKHLSGEISGVEYSPPKCETMRSNHLCFMDDDKLCHQDWMKHPLTYYEVKSRRLGMAGDPNSLEHHHHHH” here?
Answer: not soluble

Question: Which “soluble on expression in E. coli” value does the source give for “MPDDKVPTVPDKGADGSPGSSFKNPEILSSQPSESMQAVYEILIQGNNLKTGLPSIVKSQEDLQTLYSVLYGNSLKAPLIDFSKKAVVIAAAGPFNTGGYSIVPVSAIKTGKIINLVFEVKSPGPKDMVTQAFTRPYVIVSVDAEPDTEIFIEINGDAKNDKLDF” here?
Answer: not soluble

Question: For “MSPQTRPDAMSVVQERQVLRVGTLINPTSYYFDHDREQGFEYDLAKRFADRLGVELEMVPRFDVNDLFTMLRRGEVDIVAAGLDRTSTRAQLFRFSPPYDIISQKVVFKQGSRQRPRDLQQITDGEIVVVEGSSHHEFLKSLGDSIPTLKWRATRDHDAVELLQMVISGEVDYTITDSTALDIQRRFHPDLSVAFTVKHDQDIAWALPQGKDDSLFAAVIEYFGEIRSSGRLAHIKEQHFGHVKQFNYVTTSLFIEAVEQVLPGYIETFKEHSGSLDWRLLAAISYQESLWNPRAVSPTGVRGMMMLTLPTAKAMGVKSRLNAEQSIRGGARYLERMLNRVPARIPQPDRTWFAIAAYNIGFGHLEDARIITERQGGNPDRWVDVKKRLPLLRQKQFYRHTRYGFARGDEPVTYVGNIRRFYDTLKYLDEQGRLLEHHHHHH”, which “soluble on expression in E. coli” value is on record?
Answer: soluble

Question: Which “soluble on expression in E. coli” value does the source give for “MSLYIKVLSVSELNNYIKRVVDSDYILSNAQVKGEISNFKFHSSGHVYFSLKDEGGKINCIMFRSNAEKLKFIPENGMKVNVKGRVSVYVKDGAYQLYCTEITPEGRGELYEAFEKLKEKLLNEGMFSEEHKRNIPKYPKMIGVITSPTGAAIRDIINVATRRNKSVDMIICPTLVQGVNAPGELIKALDYLNNREDIDTIILARGGGSIEELWAFNDEKLAYAVYNSKKPVVTGVGHETDFTIVDFVSDRRAPTPSAAAEIAVPNINEEMNSFVSLKRALDTSIKTYIQNKCNQLEIAKRMLEKNSPEILIVNGYSSIDNFKYVLDMRIANKIKIEKEKILRYNSILKSNSPINILNKGYSIISDEIGNNISNVDKLKEPDKVHITFKDGKVNAKIDILREGHHHHHH” here?
Answer: soluble

Question: With “SMHFVQQKVKVFRAADPLVGVFLWGVAHSINELSQVPPPVMLLPDDFKASSKIKVNNHLFHRENLPSHFKFKEYCPQVFRNLRDRFGIDDQDYLVSLTRNPPSESEGSDGRFLISYDRTLVIKEVSSEDIADMHSNLSNYHQYIVKCHGNTLLPQFLGMYRVSVDNEDSYMLVMRNMFSHRLPVHRKYDLKGSLVSREASDKEKVKELPTLRDMDFLNKNQKVYIGEEEKKIFLEKLKRDVEFLVQLKIMDYSLLLGIHDIIRGSEPEEEAPVREDESEVDGDCSLTGPPALVGSYGTSPEGIGGYIHSHRPLGPGEFESFIDVYAIRSAEGAPQKEVYFMGLIDILTQYDAKKKAAHAAKTVKHGAGAEISTVHPEQYAKRFLDFITNIFA” as the sequence, how does the “soluble on expression in E. coli” value read?
Answer: soluble

Question: With “MIANHVSLLIMGIDENQERQKEYNGAFHTDALLLATFNKDDKTVKLTSIPRDTYTYVPVEKKTDNITHAYGSGIVNNGKDGGPQASVEAVEQLLQVPVDYFVKFNFGSFTKIVDGLDGIEVDVPVEFTEQNSKDEPDAIHLKKGLQKLNGEEALALARTRHIDSDAMRGQRQQLVIESILSKLKSVGSITKLEKIVEAVDDDFKTNLVMDDILSFYKYGLNGSVEKIQLAGDDLYLPNGPNGQRVYYYNPNKKDLQSLSNTLRTHLGLSEKQIEENLEHHHHHH” as the sequence, how does the “soluble on expression in E. coli” value read?
Answer: soluble

Question: With “MGSDKIHHHHHHMDINLYSDRLKLRNLLSRDWDFFLRLHLDKDVNQYIRSIEPESDIVAKFEQRKAVWLFESGDWLTLVIERIDNSQAVGLIGFRCDDAQLRRAEVGYLIAPEQQGLGFASESLLAVTDWGALQFSMHKYIGICAHENTASRKVLEKVGFVLEGTLKQNNCVDGKWSDDCYMGLLTAQRT” as the sequence, how does the “soluble on expression in E. coli” value read?
Answer: not soluble

Question: Which “soluble on expression in E. coli” value does the source give for “MLKSEDADYEKAMKDKVGTGPQEYLKQLSDSLVKNQSAASVEVVSGATHSSDAFINYANQLIQAAQKADTTTISINNLAKMEDGTYKLEEQNYAHGYRVVFSMDVKDGKITKSDYNYVDKDGKLKSDDADYEKNMKAKSGTGPKEYIPALNKSLVEKQDVAAVDTVSGATNSSNQFKIYAAQLQNAAQNGNTDTIKVYNLVEAELEHHHHHH” here?
Answer: soluble

Question: With “MSLDPFSIVQDFRSIAGEEALEIAESGEENDNEQFQNWELEAKFWDLVGLLVEYRTSETVDKDINVHSYNSNVVFQKQLLQSNKGIYEIWLIKSWLEANIGIPERPSSLCTTKWSSSMIAGTVKSMDSDSILRDPTTNLQPDDRQNDHAFFVYAFRLLLAGQFEKLTEECEFTDNLTLNLILRGMESYVDPNVDTDMTDEYASQQGIKKHALWRRSVYALSQDPLLDPYEAAIYTYLSGDSPTNLRIDGLDWETELLIYVNQIWNVTMENYLIEHGRVDNDELITDMDTACPSLSQVLNILAAKYPDESEHPIRVLTASVLLNTIEPVMKSSTDMLLDVIKGRDEDNALFNESYLLRILTNLTIFLDIVSPDTIDISNKSKLLTSYISLLSYYGLYDVIPVFVSFLSQEEIVETYSFFLTNLIDPNLRQKQMEISKYLGLPIANILRRTAQRIFEETDQYYIVDSDIELTNEVSEVDQRLMNGVEWLIENGLYTDSIDTIIALSRRFLINGKVKALELFVDNHDVPNLLKEYQLERLSSQEEDHDLKTTELLQYTSLLSTFKKQEEWVKSSQLFNTESNLRSLIKQFKGFSNTIIKLVTTFLVDLIDNEEVNDSDVLYEIRALYTPFLIMELHNNLISASENLKVSTFVQEAIDLSILVANETDKIYLLFQSNGKLTTYLQMVAKASALFGREGHHHHHH” as the sequence, how does the “soluble on expression in E. coli” value read?
Answer: not soluble

Question: With “MGPAQIWRLKFSNDKLTWEQECTFERSQYYDSIICACVYRFYHGAPPVVLFGTYSGRILQYELPPPTKFVRKSMKDVPKCGKPINLLINHGIYFIRQTGFNEIASITPFGLYILRENFHASKRLGKFGQFWLNRLQNRLLVKNPGSIDDFSAAEIRRLSIDSAQEQMRPRIGSTVSQLTFRYSDDDTLLLEKGGEKRRQTLGARDFQVSPRFYSRKIGKKIRFFLKFFREKLAGIENFRQIGKLAKMKISGKPANCQNFLPISNRGKLRKNFFFSENNDKF” as the sequence, how does the “soluble on expression in E. coli” value read?
Answer: not soluble

Question: Which “soluble on expression in E. coli” value does the source give for “MGHHHHHHSHMPVVIKEVPSSEAAEDVMVAAPLVCSGKVLEVQVVNQTSVHVDLGSQPKENEAEPSTASSVPLQDEQEPPAYDQAPEVTLQADIEVMSTVHISSVYNDVPVTEGVVYIEQLPEQIVIPFTDQVACLKENEQSKENEQSPRVSPKSVVEKTTSGMSKKSVESVKLAQLEENAKYSSVYMEAEATALLSDTSLKGQPEVPAQLLDAEGAIKIGSEKSLHLEVEITSIVSDNTGQEESGENSVPQEMEGKPVLSGEAAEAVHSGTSVKSSSGPFPPAPEGLTAPEIEPEGEATAE” here?
Answer: not soluble

Question: Which “soluble on expression in E. coli” value does the source give for “MKPKAMIRTMAIMKTADILKAMDITEELAKRMGFLPRDCLFLRLATEEACTNAYEYCQKTRKLPFRIFWKMEARQFMIIVKQRGGCFSVAQTDVVNTGPRGRGLQLITHIVDDVYVKQAGNNVLFCMCKCKK” here?
Answer: not soluble

Question: With “MSHFFADHDAPLSMLSVKTEYFPQLTDKEQKYAHFMSKASHAGSRVVMRQVSHESEPIFDLILAIHSKLNGKYPEDDITQKQQTGLYLEYVSQFLSNLGNFKSFGDTKFIPRCEVKFFKQLLELAKINPSSSPLTLSPVDVNHEFTSHHLFSTINELIDIGIYHVEEKAALLGFPSQGYTSAYYLGLPVTPEDMALLKEQLFAELAILPENTRINKVGENSFQIWVASENVKNQITETYPSGQITLSNAVTKVEFIFGDHSREMRLVASYLKEAQKFAANDTQKAMLQEYINHFVTGSSQAHKEAQKLWVKDISPVIETNIGFIETYREPSGIIGEFESLVAIQNKERTAKFSSLVNNAEEFISLLPWSKDYEKPIFNPPDFTSLEVLTFTGSGIPAGINIPNYDDVRLKIGFKNVSLGNILSAAAKSSSKHPPSFISQEDRPIFEKYQSDSFEVQVDIHELLGHGSGKLLTEFTDGFNFDKENPPLGLDGKPVSTYYKVGETWGSKFGQLAGPFEECRAEVIAMFLLTNKKILDIFGFHDVESQDKVIYAGYLQMARAGLLALEYWNPKTGKWGQPHMQARFSIMKTFMKHSTDKNFLKLEMNSTNDDFAIKLDKSLIKTAGHECVKDYLKHLHVYKCSGDVEQGSKYFIDRSTVTPDLASLRDIVLSKRLPRRQFIQSNSYIDDNNKVTLKEYDETPQGMLQSFLDREL” as the sequence, how does the “soluble on expression in E. coli” value read?
Answer: soluble

Question: Which “soluble on expression in E. coli” value does the source give for “MKKTTLAMSALALSLGLALSPLSATAAETSSSAMTAQQMPSLAPMLEKVMPSVVSINVEGSTTVNTPRMPRNFQQFFGDDSPFCQDGSPFQNSPFCQGGGNGGNGGQQQKFMALGSGVIIDAAKGYVVTNNHVVDNASVIKVQLSDGRKFDAKVVGKDPRSDIALIQIQNPKNLTAIKLADSDALRVGDYTVAIGNPFGLGETVTSGIVSALGRSGLNVENYENFIQTDAAINRGNSGGALVNLNGELIGINTAILAPDGGNIGIGFAIPSNMVKNLTSQMVEYGQVKRGELGIMGTELNSELAKAMKVDAQRGAFVSQVMPNSSAAKAGIKAGDVITSLNGKPISSFAALRAQVGTMPVGSKISLGLLREGKAITVNLELQQSSQSQVDSSTIFSGIEGAEMSNKGQDKGVVVSSVKANSPAAQIGLKKGDVIIGANQQPVKNIAELRKILDSKPSVLALNIQRGDSSIYLLMQ” here?
Answer: not soluble

Question: With “MGSDKIHHHHHHAHTRAIDNIANSGDMVTMSGTVKLYAKTAQDGGVVNTLTLQVSDFTGLDTGTGSKTVEISGAATYIEVEGNIDGSATKTDDVNSRQGGVTSDAVRVVGGAAIVTGGSTSTCSIEVAPEMARVEVKGDLGSSFTNLAELKVKGIYLNNVKQKRADAAVVKTTKASAPDWTTAYTAGGTKSNLYNTFIGTPITKFDSGKADGYNFFPQDFHIASLSAAATTKEEAAKYHPHVIMEVEYKMNGVGALSKTGWLNVVALKDNTSSSYIGEFANGKVYQLDLADIKKIMDVPVPPVTVDPDPDAVNVDVTVTVKGWELVFIKPEV” as the sequence, how does the “soluble on expression in E. coli” value read?
Answer: not soluble

Question: Which “soluble on expression in E. coli” value does the source give for “MMTVAAEIRGSNPEKLLAPVLSAFWDEDESWTLDVYRRHEGYEGLRKALAMAPDDLIAYVKESGLRGRGGAGFPTGMKWQFIPQGDGKPHYLVVNADESEPGTCKDIPLLFANPHSLIEGIVIACYAIRSSHAFIYLRGEVVPVLRRLHEAVREAYAAGFLGENILGSGLDLTLTVHAGAGAYICGEETALLDSLEGRRGQPRLRPPFPAVAGLYACPTVVNNVESIASVPAILNKGKDWFRSMGSEKSPGFTLYSLSGHVAGPGQYEAPLGITLRQLLDMSGGMRPGHRLKFWTPGGSSTPMFTDEHLDVPLDYEGVGAAGSMLGTKALQCFDETTCVVRAVTRWTEFYAHESCGKCTPCREGTYWLVQLLRDIEAGKGQMSDLDKLNDIADNINGKSFCALGDGAASPIFSSLKYFREEYEEHITGRGCPFDPAKSTAWADRTEVKALEHHHHHH” here?
Answer: not soluble
